From the supplement of paper PMC10724198
± gives the standard deviation of the averaged measurements.

System: Saccharomyces cerevisiae
Assay: protein stability index of tFT-peptide fusion (C-terminal peptide) (PSI (0-1 scale)); higher = more stable (slower turnover)
Settings: genetic background: wild type; temperature: 30 C
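Further: PSI is a weighted mean of sequencing reads over stability bins, variants kept only with over 10 reads, mCherry proximal and sfGFP distal, peptide attached via GGGS linker.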

**Q.** Which protein stability index does the source give for VLPLFSSFSRSP here?
**A.** 0.674 ± 0.058

**Q.** Which protein stability index does the source give for RAAATTELAARF here?
**A.** 0.697 ± 0.041

**Q.** How did the protein stability index turn out when LPLIPTSSRRHS was run?
**A.** 0.682 ± 0.024

**Q.** How did the protein stability index turn out when RSICTEGLDIGC was run?
**A.** 0.659 ± 0.033

**Q.** How did the protein stability index turn out when RTHIKEYKNNKI was run?
**A.** 0.647 ± 0.035

**Q.** For FSVFSCLVCSLD, which protein stability index is on record?
**A.** 0.575 ± 0.011

**Q.** With RLFAPSHSSSLP as the sequence, how does the protein stability index read?
**A.** 0.733 ± 0.055

**Q.** With HCSGGFRCPPLV as the sequence, how does the protein stability index read?
**A.** 0.6862 ± 0.0046

**Q.** With QSPPRHPSPTAS as the sequence, how does the protein stability index read?
**A.** 0.683 ± 0.082

**Q.** For RVLIPLASSPPL, which protein stability index is on record?
**A.** 0.77 ± 0.23

**Q.** With DLPRLGLPRRAC as the sequence, how does the protein stability index read?
**A.** 0.63 ± 0.047

**Q.** Which protein stability index does the source give for KKRKEKRKKNSI here?
**A.** 0.647 ± 0.016

**Q.** LVPLFVLPYGHP was tested. Which protein stability index did it give?
**A.** 0.768 ± 0.073

**Q.** PASPRDPLPRLP was tested. Which protein stability index did it give?
**A.** 0.764 ± 0.12

**Q.** PPPPSRPPPPRL was tested. Which protein stability index did it give?
**A.** 0.789 ± 0.021

**Q.** How did the protein stability index turn out when PRSLPAGHPSRG was run?
**A.** 0.692 ± 0.028

**Q.** For SLCRQHSVFSLA, which protein stability index is on record?
**A.** 0.653 ± 0.044

**Q.** Which protein stability index does the source give for PLPPPPLPPLPP here?
**A.** 0.702 ± 0.028

**Q.** With FFLWSLLGGLPC as the sequence, how does the protein stability index read?
**A.** 0.661 ± 0.02

**Q.** With PPPPPPPPPLAF as the sequence, how does the protein stability index read?
**A.** 0.653 ± 0.12

**Q.** PSTRVPATTHTL was tested. Which protein stability index did it give?
**A.** 0.6983 ± 0.00091

**Q.** How did the protein stability index turn out when AEESPVDKRPKS was run?
**A.** 0.728 ± 0.036

**Q.** With ALSVASVAVVPL as the sequence, how does the protein stability index read?
**A.** 0.56 ± 0.015

**Q.** With RVWVGGPRESGQ as the sequence, how does the protein stability index read?
**A.** 0.72118 ± 0.00022

**Q.** With VPVAAVGGGECG as the sequence, how does the protein stability index read?
**A.** 0.575 ± 0.044

**Q.** For PPPPPPPPTPAS, which protein stability index is on record?
**A.** 0.654 ± 0.023

**Q.** How did the protein stability index turn out when KARLRQRKSTSK was run?
**A.** 0.728 ± 0.0084

**Q.** RETSRNCGKVST was tested. Which protein stability index did it give?
**A.** 0.745 ± 0.043

**Q.** Which protein stability index does the source give for LTFSPPERLSFH here?
**A.** 0.737 ± 0.12

**Q.** With GKKRTGRGESAK as the sequence, how does the protein stability index read?
**A.** 0.693 ± 0.062

**Q.** How did the protein stability index turn out when KHLIHSRLGICG was run?
**A.** 0.6634 ± 0.0059

**Q.** Which protein stability index does the source give for QWPCPTLSLRFS here?
**A.** 0.632 ± 0.015

**Q.** GALLLVPFFWGE was tested. Which protein stability index did it give?
**A.** 0.668 ± 0.018

**Q.** ELRISSTTVTSP was tested. Which protein stability index did it give?
**A.** 0.664 ± 0.008

**Q.** How did the protein stability index turn out when TNSYRTSVRGER was run?
**A.** 0.795 ± 0.013

**Q.** With LRRLSSIGWSRI as the sequence, how does the protein stability index read?
**A.** 0.754 ± 0.14

**Q.** With SLLRLFFLALSY as the sequence, how does the protein stability index read?
**A.** 0.542 ± 0.071

**Q.** For RWGPGRSGSRGA, which protein stability index is on record?
**A.** 0.652 ± 0.022

**Q.** How did the protein stability index turn out when EWVYSGDGMGVG was run?
**A.** 0.622 ± 0.03

**Q.** For LGRRGLSMCGCV, which protein stability index is on record?
**A.** 0.634 ± 0.018

**Q.** YSGSYIEPREIR was tested. Which protein stability index did it give?
**A.** 0.626 ± 0.087

**Q.** Which protein stability index does the source give for WVWAIDYEGLLW here?
**A.** 0.699 ± 0.054

**Q.** How did the protein stability index turn out when CSPGVSGVSSVD was run?
**A.** 0.685 ± 0.026

**Q.** Which protein stability index does the source give for LASVYLLLRFSE here?
**A.** 0.5266 ± 0.0012

**Q.** With PASEVLFMEFVT as the sequence, how does the protein stability index read?
**A.** 0.753 ± 0.026

**Q.** PPASSARPLLFL was tested. Which protein stability index did it give?
**A.** 0.6664 ± 0.0053

**Q.** With VSRTVLSSDHRG as the sequence, how does the protein stability index read?
**A.** 0.752 ± 0.076

**Q.** Which protein stability index does the source give for VAGAVGSAQFER here?
**A.** 0.649 ± 0.13

**Q.** How did the protein stability index turn out when GVANSPTVRERT was run?
**A.** 0.666 ± 0.018

**Q.** PEDRCLDLLILC was tested. Which protein stability index did it give?
**A.** 0.5236 ± 0.004

**Q.** With RFGSLKWGRGCI as the sequence, how does the protein stability index read?
**A.** 0.6759 ± 0.0044

**Q.** How did the protein stability index turn out when VLPRVLADVRST was run?
**A.** 0.685 ± 0.03

**Q.** Which protein stability index does the source give for RSLPPGFPSTLL here?
**A.** 0.652 ± 0.014

**Q.** GGCVTRYSSQRA was tested. Which protein stability index did it give?
**A.** 0.656 ± 0.041

**Q.** RWGWGGYRGGVP was tested. Which protein stability index did it give?
**A.** 0.7572 ± 0.0061

**Q.** How did the protein stability index turn out when YRVGCCCFFALT was run?
**A.** 0.618 ± 0.016

**Q.** YSGSKGVWTRWS was tested. Which protein stability index did it give?
**A.** 0.687 ± 0.02

**Q.** How did the protein stability index turn out when ENKIKERPKMRY was run?
**A.** 0.658 ± 0.026

**Q.** Which protein stability index does the source give for RPKGREKGEGRG here?
**A.** 0.733 ± 0.077

**Q.** NYLLYSRRSVRV was tested. Which protein stability index did it give?
**A.** 0.532 ± 0.04

**Q.** FGFSAVCFGNLC was tested. Which protein stability index did it give?
**A.** 0.6729 ± 0.0024

**Q.** Which protein stability index does the source give for RLCRQPPSLLPP here?
**A.** 0.6958 ± 0.0053

**Q.** With WCVEGVWRVRGW as the sequence, how does the protein stability index read?
**A.** 0.649 ± 0.044

**Q.** For PPSLPAPPPPPA, which protein stability index is on record?
**A.** 0.6655 ± 0.0023

**Q.** For SSASPVPVLPLT, which protein stability index is on record?
**A.** 0.7 ± 0.018

**Q.** With SYRTCIRHSNAP as the sequence, how does the protein stability index read?
**A.** 0.7655 ± 0.0074

**Q.** AKRFQTTWAGRM was tested. Which protein stability index did it give?
**A.** 0.61 ± 0.037

**Q.** With FIPGGPSGFCFR as the sequence, how does the protein stability index read?
**A.** 0.669 ± 0.075

**Q.** How did the protein stability index turn out when SRPQTTGPLPPL was run?
**A.** 0.684 ± 0.05

**Q.** With DWGGRRVTEEEG as the sequence, how does the protein stability index read?
**A.** 0.641 ± 0.029

**Q.** How did the protein stability index turn out when GLEFTAFRLRFL was run?
**A.** 0.667 ± 0.068

**Q.** With PPLVPRTSPSPS as the sequence, how does the protein stability index read?
**A.** 0.666 ± 0.012

**Q.** Which protein stability index does the source give for GCRCWGVRVGCV here?
**A.** 0.5407 ± 0.003

**Q.** Which protein stability index does the source give for SLPGPRTELPLA here?
**A.** 0.644 ± 0.034

**Q.** Which protein stability index does the source give for AFPAQSLRLRCE here?
**A.** 0.688 ± 0.049

**Q.** With GFVFSRGLERPL as the sequence, how does the protein stability index read?
**A.** 0.675 ± 0.062

**Q.** For VCHYKVSFSCLL, which protein stability index is on record?
**A.** 0.64 ± 0.044

**Q.** For GSVMDMTRGGVS, which protein stability index is on record?
**A.** 0.646 ± 0.097

**Q.** GVLRAWARLWGN was tested. Which protein stability index did it give?
**A.** 0.599 ± 0.039

**Q.** GVGLSGEGGLGR was tested. Which protein stability index did it give?
**A.** 0.642 ± 0.015

**Q.** Which protein stability index does the source give for TKERERAAGKKT here?
**A.** 0.7005 ± 0.0067
